Source: patent publication US8808980B2, “Stabilized open form transglutaminase as a diagnostic indictor for autoimmune diseases” (Zedira GmbH, priority 2009, dated 2014)

Columns and labels:
[1] = enzymatic activity of truncated tissue transglutaminases; format: biochemical
Source text: Tissue transglutaminase fragments were produced recombinantly in E. coli as deletion mutants lacking C-terminal amino acids from positions S538 and E447 according to example 1 an methods known to persons skilled in the art. The resulting truncated tissue transglutaminases still were enzymatically active, although the activity was reduced to 5 and 1% respectively compared to the full length enzyme. Transglutaminase 6 fragment lacking the C-terminal amino acids from position G594 was produced accordingly.

[2] = system: Patient F (celiac disease); test: hyposensitisation of a celiac disease patient with open TG2; format: in vivo, human; settings: subcutaneous, 6 months weekly rising doses, then monthly 1.5 years; then 1 g gluten per day
Source text: Patient F suffered from celiac disease and has been on gluten free diet for 8 years. […] Patient F has been injected subcutaneously a solution containing open TG2, which has been produced according to example 1. Injections have been repeated weekly over a period of six months; the doses have been increased over this period in order to reach the maintenance dose. The application has then been repeated applying the maintenance dose once a month for 1.5 years. Patient F was kept on a strict gluten free diet for this whole hyposensitisation therapy period. Later-on the patient started to consume minor amounts (1 g per day) of gluten in addition to the gluten free diet.

Molecule	enzymatic activity compared to the full length enzyme [1] [%]	celiac disease symptoms after hyposensitisation therapy [2]
TG2 ΔS538: tissue transglutaminase deletion mutant lacking C-terminal amino acids from position S538 (protein, UniProt P21980 1-537, looked up, fragment) MAEELVLERCDLELETNGRDHHTADLCREKLVVRRGQPFWLTLHFEGRNYEASVDSLTFSVVTGPAPSQEAGTKARFPLRDAVEEGDWTATVVDQQDCTLSLQLTTPANAPIGLYRLSLEASTGYQGSSFVLGHFILLFNAWCPADAVYLDSEEERQEYVLTQQGFIYQGSAKFIKNIPWNFGQFEDGILDICLILLDVNPKFLKNAGRDCSRRSSPVYVGRVVSGMVNCNDDQGVLLGRWDNNYGDGVSPMSWIGSVDILRRWKNHGCQRVKYGQCWVFAAVACTVLRCLGIPTRVVTNYNSAHDQNSNLLIEYFRNEFGEIQGDKSEMIWNFHCWVESWMTRPDLQPGYEGWQALDPTPQEKSEGTYCCGPVPVRAIKEGDLSTKYDAPFVFAEVNADVVDWIQQDDGSVHKSINRSLIVGLKISTKSVGRDEREDITHTYKYPEGSSEEREAFTRANHLNKLAEKEETGMAMRIRVGQSMNMGSDFDVFAHITNNTAEEYVCRLLLCARTVSYNGILGPECGTKYLLNLNLEPF	5	–
TG2 ΔE447: tissue transglutaminase deletion mutant lacking C-terminal amino acids from position E447 (protein, UniProt P21980 1-446, looked up, fragment) MAEELVLERCDLELETNGRDHHTADLCREKLVVRRGQPFWLTLHFEGRNYEASVDSLTFSVVTGPAPSQEAGTKARFPLRDAVEEGDWTATVVDQQDCTLSLQLTTPANAPIGLYRLSLEASTGYQGSSFVLGHFILLFNAWCPADAVYLDSEEERQEYVLTQQGFIYQGSAKFIKNIPWNFGQFEDGILDICLILLDVNPKFLKNAGRDCSRRSSPVYVGRVVSGMVNCNDDQGVLLGRWDNNYGDGVSPMSWIGSVDILRRWKNHGCQRVKYGQCWVFAAVACTVLRCLGIPTRVVTNYNSAHDQNSNLLIEYFRNEFGEIQGDKSEMIWNFHCWVESWMTRPDLQPGYEGWQALDPTPQEKSEGTYCCGPVPVRAIKEGDLSTKYDAPFVFAEVNADVVDWIQQDDGSVHKSINRSLIVGLKISTKSVGRDEREDITHTYKYP	1	–
open TG2: recombinant TG2 stabilized in its open form by reaction with the inhibitor Z-PIMen(OEt)-QPL-OMe (protein, UniProt P21980 2-687, looked up, Z-PIMen(OEt)-QPL-OMe inhibitor adduct) Protein-glutamine …: AEELVLERCDLELETNGRDHHTADLCREKLVVRRGQPFWLTLHFEGRNYEASVDSLTFSVVTGPAPSQEAGTKARFPLRDAVEEGDWTATVVDQQDCTLSLQLTTPANAPIGLYRLSLEASTGYQGSSFVLGHFILLFNAWCPADAVYLDSEEERQEYVLTQQGFIYQGSAKFIKNIPWNFGQFEDGILDICLILLDVNPKFLKNAGRDCSRRSSPVYVGRVVSGMVNCNDDQGVLLGRWDNNYGDGVSPMSWIGSVDILRRWKNHGCQRVKYGQCWVFAAVACTVLRCLGIPTRVVTNYNSAHDQNSNLLIEYFRNEFGEIQGDKSEMIWNFHCWVESWMTRPDLQPGYEGWQALDPTPQEKSEGTYCCGPVPVRAIKEGDLSTKYDAPFVFAEVNADVVDWIQQDDGSVHKSINRSLIVGLKISTKSVGRDEREDITHTYKYPEGSSEEREAFTRANHLNKLAEKEETGMAMRIRVGQSMNMGSDFDVFAHITNNTAEEYVCRLLLCARTVSYNGILGPECGTKYLLNLNLEPFSEKSVPLCILYEKYRDCLTESNLIKVRALLVEPVINSYLLAERDLYLENPEIKIRILGEPKQKRKLVAEVSLQNPLPVALEGCTFTVEGAGLTEEQKTVEIPDPVEAGEEVKVRMDLLPLHMGLHKLVVNFESDKLKAVKGFRNVIIGPA	–	No celiac disease symptoms could be measured clinically or by biopsy or serology
